To fix the notation:
B1: DARPin® protein #39 (designed binder)
chain: MRGSHHHHHHGSDLGKKLLEAARAGQDDEVRELLKAGADVNAKDEWGKTPLHLAAIRGHLEIVEVLLKAGADVNAKDTHGITPLHLAAFVGHLEIVEVLLKAGADVNAKDYLGRTPLHIAAAKGHLEIVEVLLKAGADVNAQDKSGKTPADLAADAGHEDIVEVLQKLN
B2: DARPin® protein #34 (designed binder)
chain: MRGSHHHHHHGSDLGKKLLEAARAGQDDEVRELLKAGADVNAKDVLGWTPLHLAAFEGHLEIVEVLLKAGADVNAKDKKGWTPLQLAARTGHLEIVEVLLKAGADVNAKDHIGATPLHLAAWQGHPEIVEVLLKAGADVNAQDKSGKTPADLAADAGHEDIAEVLQKAA
B3: DARPin® protein #36 (designed binder)
chain: B2 chain with E32I, K35A, A168L, A169N
B4: DARPin® protein #38 (designed binder)
chain: MRGSHHHHHHGSDLGKKLLEAARAGQDDEVRELLKAGADVNAKDEVGRTPLHLAAQIGHLEIVEVLLKAGADVNAKNRWGVTPLHVAAWVGHLEIVEVLLKAGADVNAKDQQGATPLHLAAIRGHLEIVEVLLKAGADVNAQDKSGKTPADLAADAGHEDIAEVLQKLN
B5: DARPin® protein #35 (designed binder)
chain: MRGSHHHHHHGSDLGEKLLVAALYGQDDEVRELLKAGADVNAKDQWGLTPLHKAALQGHLEIVEVLLKAGADVNAKDERGHTPLHWAARFGHLEIVEVLLKAGADVNAQDQKGYTPADLAALWGHEDIAEVLQKAA
B6: DARPin® protein #37 (designed binder)
chain: B5 chain with E32I, K35A, A135L, A136N

A word on the Kd: it is the constant that tells how readily two partners part at equilibrium.

Residue numbers refer to the chain shown, from its start.

One test deals with T1, Recombinant human FAP (fibroblast activation protein) (human, UniProt Q12884 26-760).
T1 construct: Bought soluble recombinant protein; Chemically biotinylated for the HTRF screen; also called hFAP; biotinylated human FAP
T1 sequence (looked up): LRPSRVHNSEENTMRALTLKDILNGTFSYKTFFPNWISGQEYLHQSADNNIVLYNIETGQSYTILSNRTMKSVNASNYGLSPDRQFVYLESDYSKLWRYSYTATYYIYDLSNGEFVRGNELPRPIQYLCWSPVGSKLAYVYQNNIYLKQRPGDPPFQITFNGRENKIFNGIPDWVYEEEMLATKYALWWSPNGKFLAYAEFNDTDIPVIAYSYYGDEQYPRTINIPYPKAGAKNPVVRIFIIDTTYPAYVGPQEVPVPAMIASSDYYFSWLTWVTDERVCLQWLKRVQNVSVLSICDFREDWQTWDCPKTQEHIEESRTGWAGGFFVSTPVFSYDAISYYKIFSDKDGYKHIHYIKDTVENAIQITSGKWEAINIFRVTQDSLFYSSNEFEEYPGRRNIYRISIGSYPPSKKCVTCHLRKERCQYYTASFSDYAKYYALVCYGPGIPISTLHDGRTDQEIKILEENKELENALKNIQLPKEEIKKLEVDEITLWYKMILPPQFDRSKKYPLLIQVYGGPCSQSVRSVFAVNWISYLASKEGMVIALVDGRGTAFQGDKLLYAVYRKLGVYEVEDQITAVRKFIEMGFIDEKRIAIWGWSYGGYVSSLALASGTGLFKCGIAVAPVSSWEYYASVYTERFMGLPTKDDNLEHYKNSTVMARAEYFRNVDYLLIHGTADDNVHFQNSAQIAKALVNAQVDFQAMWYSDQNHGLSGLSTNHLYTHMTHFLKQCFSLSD
The test can be described thus: SPR (ProteOn), human FAP immobilized on GLC chip. In short, it runs like this:
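Human FAP amine-coupled (pH 5.3 acetate) to about 2000 RU. Ankyrin repeat proteins injected at 0.5–30 nM in PBS pH 7.4 with 0.005% Tween 20 at 100 μl/min, then ≥25 min dissociation, with double referencing. KD calculated from the fitted on- and off-rates.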
With B1, the Kd was determined as 0.22 nM.

Regarding B2, the Kd amounted to 0.177 nM.

B3: the Kd amounted to 0.118 nM.

With B4, the Kd came out at 0.058 nM.

On to B5, for which the Kd was 0.21 nM.

For B6, the dissociation constant (Kd) turned out to be 0.14 nM.

The next test deals with T1, Recombinant human FAP (fibroblast …). The experiment in a line: SPR (ProteOn), human FAP immobilized on GLC chip. This is another data set of the same source. The protocol:
(§1) Briefly, human FAP was diluted in 10 mM Na-acetate pH 5.3 buffer and covalently immobilized on a GLC chip (BioRad) to a level of around 2000 resonance units (RU). The interaction of ankyrin repeat protein and hFAP was then measured by injecting 200 μl running buffer (PBS, pH 7.4 containing 0.005% Tween 20®) containing serial dilutions of ankyrin repeat proteins covering a concentration range between 30 nM and 0.5 nM (on-rate measurement), followed by a running buffer flow for at least 25 minutes at a constant flow rate of 100 μl/min (off-rate measurement). The regeneration was performed using 15 μl of 10 mM Glycine pH 2 followed by 15 μl of 124 mM H₃PO₄. The signals (i.e. resonance unit (RU) values) of the interspots and a reference injection (i.e. injection of running buffer only) were subtracted from the RU traces obtained after injection of ankyrin repeat protein (double-referencing). Based on the SPR traces obtained from the on-rate and off-rate measurements, the on- and off-rate of the corresponding ankyrin repeat protein—FAP interaction was determined.
(§2) Dissociation constants (KD) were calculated from the estimated on- and off-rates using standard procedures known to the person skilled in the art. […] Table 4 provides the KD values on cFAP and hFAP of some of the selected ankyrin repeat proteins as examples.
B1: the dissociation constant Kd was determined as 0.22 nM.

Regarding B2, the equilibrium dissociation constant (Kd) worked out at 0.177 nM.

B3: the equilibrium dissociation constant (Kd) worked out at 0.118 nM.

Regarding B4, the dissociation constant Kd is 0.058 nM.

For the molecule B5, the dissociation constant Kd stood at 0.21 nM.

Regarding B6, the equilibrium dissociation constant (Kd) is 0.14 nM.

For the next test, the target named is T2, Histidine-tagged cynomolgus FAP (cynomolgus monkey (Macaca fascicularis), UniProt Q12884 30-760 (human entry)).
T2 construct: the tie between the two is by these matching words only; also called cFAP; cyno FAP
T2 sequence: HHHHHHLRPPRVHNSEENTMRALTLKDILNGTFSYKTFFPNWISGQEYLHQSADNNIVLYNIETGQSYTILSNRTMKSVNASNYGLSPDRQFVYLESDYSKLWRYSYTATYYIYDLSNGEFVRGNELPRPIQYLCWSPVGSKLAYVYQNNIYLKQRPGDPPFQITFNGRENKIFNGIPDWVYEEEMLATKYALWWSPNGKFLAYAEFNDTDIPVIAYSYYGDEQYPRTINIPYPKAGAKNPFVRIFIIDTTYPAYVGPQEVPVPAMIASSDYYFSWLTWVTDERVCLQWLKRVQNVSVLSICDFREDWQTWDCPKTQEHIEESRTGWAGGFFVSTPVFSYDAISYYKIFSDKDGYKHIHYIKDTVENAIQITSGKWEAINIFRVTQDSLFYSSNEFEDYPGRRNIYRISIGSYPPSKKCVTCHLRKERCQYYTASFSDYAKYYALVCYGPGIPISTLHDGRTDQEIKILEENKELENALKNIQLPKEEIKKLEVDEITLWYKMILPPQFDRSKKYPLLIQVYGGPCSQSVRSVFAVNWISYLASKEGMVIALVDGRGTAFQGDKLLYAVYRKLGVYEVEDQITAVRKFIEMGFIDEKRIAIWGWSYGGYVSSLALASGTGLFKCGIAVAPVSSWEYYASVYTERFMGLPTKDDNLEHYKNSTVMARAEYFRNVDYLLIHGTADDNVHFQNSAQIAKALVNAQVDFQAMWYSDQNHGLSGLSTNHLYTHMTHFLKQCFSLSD
The experiment in a line: SPR (ProteOn), cynomolgus FAP immobilized on GLC chip. Here is the method: as §1, with “cyno” for “human”, “pH5.3” for “pH 5.3”, “cFAP” for “hFAP”, “25” for “30”, “0.3” for “0.5”
as §2
The molecule B1 returned a Kd of 0.155 nM.

B2 displayed an equilibrium dissociation constant (Kd) of 0.071 nM.

Turning to B3, the Kd is 0.101 nM.

On to B4, for which binding was characterised by a dissociation constant (Kd) of 0.047 nM.

Turning to B5, the Kd was found to be 0.15 nM.

Molecule B6 yielded a Kd of 0.112 nM.

The values above are taken from patent publication US20220242973A1 (Molecular Partners, published 2022).
